Laboratory results from the supplement of paper PMC9112550, “Optimization of the antimicrobial peptide Bac7 by deep mutational scanning” (BMC Biology, 2022).

Tested on: Escherichia coli TOP10
Assay: shrunken log2 fold change of peptide-encoding DNA abundance (4.5 h post-induction vs induction); higher = less antimicrobial activity (less host growth inhibition)
Conditions: time post-induction: 4.5 h; library: site-saturation at positions 5, 18, 19, 20
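Further: peptides expressed intracellularly from a pBAD plasmid library in pooled LB shake-flask culture, induced with 0.3% L-arabinose, DNA abundance read by NGS, three biological replicates, DESeq2 with apeglm shrinkage.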

| Sequence | shrunken log2 fold change |
| --- | --- |
| RRIRTRPPRLPRPRPRPNPKPRP | 0.27 |
| RRIRPRPPRLPRPRPRPQVTPRP | -0.0231 |
| RRIRDRPPRLPRPRPRPGYPPRP | 0.0463 |
| RRIRTRPPRLPRPRPRPRCMPRP | -0.288 |
| RRIRFRPPRLPRPRPRPGAWPRP | -0.15 |
| RRIRKRPPRLPRPRPRPIHHPRP | 0.0077 |
| RRIRGRPPRLPRPRPRPCHAPRP | 0.274 |
| RRIRTRPPRLPRPRPRPGPMPRP | 0.101 |
| RRIRWRPPRLPRPRPRPSEPPRP | -0.266 |
| RRIRVRPPRLPRPRPRPFPEPRP | -0.24 |
| RRIRLRPPRLPRPRPRPKTLPRP | -0.0582 |
| RRIRERPPRLPRPRPRPRQLPRP | -0.0334 |
| RRIRARPPRLPRPRPRPIDYPRP | -0.228 |
| RRIRLRPPRLPRPRPRPDHWPRP | 0.143 |
| RRIRDRPPRLPRPRPRPIGDPRP | -0.00843 |
| RRIRQRPPRLPRPRPRPHEHPRP | 0.0439 |
| RRIRDRPPRLPRPRPRPQESPRP | -0.257 |
| RRIRPRPPRLPRPRPRPPCTPRP | 0.00476 |
| RRIRTRPPRLPRPRPRPRYRPRP | -0.0728 |
| RRIRCRPPRLPRPRPRPNVAPRP | 0.0221 |
| RRIRSRPPRLPRPRPRPTTCPRP | 0.0283 |
| RRIRSRPPRLPRPRPRPAIFPRP | 0.0447 |
| RRIRARPPRLPRPRPRPINAPRP | -0.256 |
| RRIRERPPRLPRPRPRPVLDPRP | -0.12 |
| RRIRTRPPRLPRPRPRPHGGPRP | 0.384 |

| Sequence | shrunken log2 fold change |
| --- | --- |
| RRIRVRPPRLPRPRPRPPWYPRP | 0.0253 |
| RRIRRRPPRLPRPRPRPGCYPRP | 0.17 |
| RRIRIRPPRLPRPRPRPQQQPRP | -0.061 |
| RRIRHRPPRLPRPRPRPHTAPRP | -0.337 |
| RRIRNRPPRLPRPRPRPNAMPRP | 0.0458 |
| RRIRDRPPRLPRPRPRPEFWPRP | 1.02 |
| RRIRTRPPRLPRPRPRPAMNPRP | -0.405 |
| RRIRKRPPRLPRPRPRPHGNPRP | -0.0306 |
| RRIRARPPRLPRPRPRPCAVPRP | 0.365 |
| RRIRKRPPRLPRPRPRPIVMPRP | 0.0102 |
| RRIRKRPPRLPRPRPRPCANPRP | 0.232 |
| RRIRHRPPRLPRPRPRPFGEPRP | -0.0377 |
| RRIRTRPPRLPRPRPRPDTPPRP | -0.193 |
| RRIRKRPPRLPRPRPRPDPKPRP | 0.549 |
| RRIRRRPPRLPRPRPRPKRNPRP | 0.525 |
| RRIRCRPPRLPRPRPRPYFPPRP | -0.513 |
| RRIRWRPPRLPRPRPRPGMVPRP | 0.628 |
| RRIRYRPPRLPRPRPRPLGWPRP | 0.0401 |
| RRIRGRPPRLPRPRPRPINFPRP | -0.189 |
| RRIRPRPPRLPRPRPRPCPIPRP | 0.082 |
| RRIRRRPPRLPRPRPRPTEDPRP | 0.477 |
| RRIRFRPPRLPRPRPRPICGPRP | 0.0198 |
| RRIRGRPPRLPRPRPRPRRPPRP | 0.756 |
| RRIRWRPPRLPRPRPRPIPWPRP | -0.0329 |
| RRIRFRPPRLPRPRPRPERQPRP | -0.000475 |

| Sequence | shrunken log2 fold change |
| --- | --- |
| RRIRDRPPRLPRPRPRPLHAPRP | 0.317 |
| RRIRHRPPRLPRPRPRPDQKPRP | 0.0292 |
| RRIRDRPPRLPRPRPRPQFLPRP | -0.225 |
| RRIRSRPPRLPRPRPRPWMAPRP | 0.0303 |
| RRIRERPPRLPRPRPRPHRQPRP | -0.0179 |
| RRIRSRPPRLPRPRPRPWCYPRP | -0.263 |
| RRIRKRPPRLPRPRPRPMLEPRP | 0.621 |
| RRIRFRPPRLPRPRPRPCGTPRP | -0.207 |
| RRIRSRPPRLPRPRPRPEWMPRP | 0.0203 |
| RRIRFRPPRLPRPRPRPQFIPRP | -0.141 |
| RRIRCRPPRLPRPRPRPNTMPRP | -0.682 |
| RRIRCRPPRLPRPRPRPGMAPRP | 0.418 |
| RRIRGRPPRLPRPRPRPAEVPRP | 0.31 |
| RRIRKRPPRLPRPRPRPMMNPRP | 0.154 |
| RRIRCRPPRLPRPRPRPTRAPRP | 0.632 |
| RRIRPRPPRLPRPRPRPMMYPRP | -0.198 |
| RRIRWRPPRLPRPRPRPGFSPRP | 0.138 |
| RRIRQRPPRLPRPRPRPDNPPRP | -0.0388 |
| RRIRMRPPRLPRPRPRPKTTPRP | 1.09 |
| RRIRGRPPRLPRPRPRPRIHPRP | 0.273 |
| RRIRLRPPRLPRPRPRPVHLPRP | -0.0235 |
| RRIRWRPPRLPRPRPRPPRSPRP | 0.733 |
| RRIRHRPPRLPRPRPRPVHCPRP | -0.159 |
| RRIRQRPPRLPRPRPRPFEYPRP | -0.0368 |
| RRIRKRPPRLPRPRPRPMFRPRP | 0.0113 |

| Sequence | shrunken log2 fold change |
| --- | --- |
| RRIRQRPPRLPRPRPRPSRMPRP | -0.34 |
| RRIRSRPPRLPRPRPRPHVNPRP | -0.259 |
| RRIRERPPRLPRPRPRPQFEPRP | -0.0369 |
| RRIRCRPPRLPRPRPRPDIHPRP | -0.468 |
| RRIRMRPPRLPRPRPRPILPPRP | 0.0577 |
| RRIRERPPRLPRPRPRPNGGPRP | -0.0469 |
| RRIRLRPPRLPRPRPRPDAIPRP | 0.0952 |
| RRIRKRPPRLPRPRPRPSYHPRP | 2.31 |
| RRIRDRPPRLPRPRPRPLILPRP | -0.096 |
| RRIRARPPRLPRPRPRPSNMPRP | -0.28 |
| RRIRIRPPRLPRPRPRPLVNPRP | -0.814 |
| RRIRWRPPRLPRPRPRPSYYPRP | -0.292 |
| RRIRCRPPRLPRPRPRPHQDPRP | -0.365 |
| RRIRTRPPRLPRPRPRPSKVPRP | -0.0295 |
| RRIRFRPPRLPRPRPRPSYHPRP | -0.485 |
| RRIRERPPRLPRPRPRPNMEPRP | -0.384 |
| RRIRCRPPRLPRPRPRPMHYPRP | -0.24 |
| RRIRRRPPRLPRPRPRPCLPPRP | -0.132 |
| RRIRGRPPRLPRPRPRPGGTPRP | 1.09 |
| RRIRFRPPRLPRPRPRPSAKPRP | 0.319 |
| RRIRLRPPRLPRPRPRPNDNPRP | -0.557 |
| RRIRQRPPRLPRPRPRPRRNPRP | 0.327 |
| RRIRDRPPRLPRPRPRPCSCPRP | 0.173 |
| RRIRERPPRLPRPRPRPFSDPRP | -0.0836 |
| RRIRWRPPRLPRPRPRPKIHPRP | -0.23 |

| Sequence | shrunken log2 fold change |
| --- | --- |
| RRIRNRPPRLPRPRPRPCHSPRP | -0.539 |
| RRIRVRPPRLPRPRPRPEMHPRP | 0.209 |
| RRIRVRPPRLPRPRPRPNCHPRP | -0.201 |
| RRIRRRPPRLPRPRPRPRGVPRP | 0.816 |
| RRIRHRPPRLPRPRPRPNRTPRP | 0.031 |
| RRIRCRPPRLPRPRPRPGVVPRP | 0.147 |
| RRIRGRPPRLPRPRPRPKNVPRP | 0.0302 |
| RRIRQRPPRLPRPRPRPATTPRP | 0.351 |
| RRIRNRPPRLPRPRPRPKVTPRP | -0.0149 |
| RRIRVRPPRLPRPRPRPHMGPRP | -0.302 |
| RRIRLRPPRLPRPRPRPYFMPRP | -0.855 |
| RRIRTRPPRLPRPRPRPSEVPRP | 0.0146 |
| RRIRKRPPRLPRPRPRPAFEPRP | 0.158 |
| RRIRIRPPRLPRPRPRPAGGPRP | 0.3 |
| RRIRGRPPRLPRPRPRPPICPRP | 0.155 |
| RRIRARPPRLPRPRPRPCEDPRP | 0.693 |
| RRIRIRPPRLPRPRPRPESIPRP | -0.12 |
| RRIRDRPPRLPRPRPRPKKWPRP | -0.0255 |
| RRIRNRPPRLPRPRPRPELNPRP | -0.0809 |
| RRIRHRPPRLPRPRPRPSDLPRP | -0.441 |
| RRIRPRPPRLPRPRPRPDMRPRP | 0.861 |
| RRIRWRPPRLPRPRPRPGKSPRP | 0.0772 |
| RRIRVRPPRLPRPRPRPLFVPRP | -0.175 |
| RRIRHRPPRLPRPRPRPECVPRP | 0.321 |
| RRIRKRPPRLPRPRPRPAECPRP | 0.33 |

| Sequence | shrunken log2 fold change |
| --- | --- |
| RRIRQRPPRLPRPRPRPASSPRP | -0.196 |
| RRIRTRPPRLPRPRPRPVSPPRP | -0.194 |
| RRIRYRPPRLPRPRPRPYHFPRP | -0.535 |
| RRIRQRPPRLPRPRPRPDCCPRP | -0.0188 |
| RRIRRRPPRLPRPRPRPAYMPRP | 0.0857 |
| RRIRTRPPRLPRPRPRPEHYPRP | -0.0177 |
| RRIRARPPRLPRPRPRPRPVPRP | 0.771 |
| RRIRHRPPRLPRPRPRPEWQPRP | 0.145 |
| RRIRQRPPRLPRPRPRPHYQPRP | -0.0204 |
| RRIRIRPPRLPRPRPRPREGPRP | 0.229 |
| RRIRCRPPRLPRPRPRPDTTPRP | 0.00602 |
| RRIRKRPPRLPRPRPRPVSDPRP | 0.156 |
| RRIRNRPPRLPRPRPRPCKMPRP | -0.00674 |
| RRIRYRPPRLPRPRPRPERCPRP | -0.12 |
| RRIRFRPPRLPRPRPRPRIWPRP | 0.051 |
| RRIRLRPPRLPRPRPRPPMVPRP | -0.192 |
| RRIRPRPPRLPRPRPRPIMGPRP | -0.233 |
| RRIRIRPPRLPRPRPRPEFLPRP | -0.0199 |
| RRIRARPPRLPRPRPRPTCEPRP | 0.723 |
| RRIRVRPPRLPRPRPRPIFFPRP | 0.125 |
| RRIRPRPPRLPRPRPRPKAMPRP | 0.000243 |
| RRIRIRPPRLPRPRPRPPDWPRP | 0.286 |
| RRIRDRPPRLPRPRPRPQYWPRP | -0.695 |
| RRIRCRPPRLPRPRPRPCVVPRP | -0.474 |
| RRIRMRPPRLPRPRPRPANGPRP | 0.094 |
